Here are results for one substance from article PMC12205980.

This assay addresses GP55 (ORF55-encoded replicase of lactococcal phage 1706), full length (lactococcal phage 1706). Nature of the assay: SEC-MALS; Superdex 200 Increase 10/300 GL, 20 mM Tris-HCl pH 8.0, 100 mM NaCl, 1 mM TCEP, 0.5 ml/min; Wyatt Dawn Heleos II; self-association of the Ni-NTA-purified protein. A general note: SEC sorts molecules by how far they enter the pores of the column.

The stoichiometry N is the number of molecules, sites or subunits per partner or assembly.

The substance “GP55 (ORF55-encoded replicase of lactococcal phage 1706), full length (enzyme)” came in with a stoichiometry N of 2.
